# Assay results as given in patent US20200239517A1.
# Columns and labels:
# [1] = molecular target: human polyclonal IgG (Gammanorm) (human); assay: SPR; ratio to reference Zvar1 after 0.5M NaOH cycles
# [2] = molecular target: human polyclonal IgG (Gammanorm) (human); assay: SPR, ligand on chip; IgG signal left after 0.5M NaOH cycles
# [3] = molecular target: human polyclonal IgG (Gammanorm) (human); assay: SPR; ratio to reference Zvar4 after 0.5M NaOH cycles
# [4] = molecular target: human polyclonal IgG (Gammanorm) (human); assay: SPR, ligand on chip; IgG signal left after 1M NaOH cycles
# [5] = molecular target: human polyclonal IgG (Gammanorm) (human); assay: SPR; ratio to reference Zvar4 after 1M NaOH cycles
# [6] = molecular target: IgG1 monoclonal antibody (probe molecule of Example 1); assay: Biacore SPR, ligand on CM5 chip, IgG1 mAb as probe
# [7] = molecular target: human polyclonal IgG (Gammanorm) (human); assay: SPR; ratio to reference Zvar6 after 0.5M NaOH cycles
Substance,Capacity relative to reference [1],Capacity after 96-100 cycles [2] [%],Capacity relative to ref. 100 cycles [3],Remaining capacity 100 cycles (%) [2] [%],other results
"Zvar(N11K, H18K, S33K, D37E, A42R, N43A, L44I, K50R, L51Y)1 (designed binder)",1.46,67,–,–,–
"Zvar(Q9A, N11E, D37E, Q40V, A42K, N43A, L44I)4 (designed binder)",–,–,1.13,81,–
"Zvar(Q9A, N11E, D37E, Q40V, A42R, N43A, L44I)4 (designed binder)",–,–,1.17,84,–
"Zvar(Q9A, N11E, N28A, Q40V, A42K, N43A, L44I)4 (designed binder)",–,–,1.24,84,–
"Zvar(Q9A, N11K, H18K, D37E, A42R, N43A, L44I)1 (designed binder)",1.4,63,–,–,–
"Zvar(Q9A, N11K, H18K, D37E, A42R, N43A, L44I, K50R)1 (designed binder)",1.49,67,–,–,–
parental B domain of Protein A (from UniProt A0A0H3K686 212-269),–,–,–,–,Reference capacity after 96-100 cycles [2]: 35%
parental C domain of Protein A (from UniProt A0A0H3K686 270-327),–,–,–,–,Reference capacity after 96-100 cycles [2]: 49%

# More lines, main results first:
Capacity relative to reference [1],Capacity after 96-100 cycles [2] [%],Capacity relative to ref. 100 cycles [3],Remaining capacity 100 cycles (%) [2] [%],Substance,other results
1.04,53,–,–,"Zvar(N11E, Q32E, K50R)1 (designed binder)",–
1.31,59,–,–,"Zvar(N11K, H18K, D37E, A42R, N43A, L44I)1 (designed binder)",–
–,–,1.19,80,"Zvar(Q9A, N11E, N28A, N43A)4 (designed binder)",Capacity relative to ref. 200 cycles [3]: 1.72; Capacity relative to ref. 300 cycles [3]: 2.62; Remaining capacity 100 cycles (%) [4]: 55%; Capacity relative to ref. 100 cycles [5]: 2.04; Remaining capacity 200 cycles (%) [2]: 62%; Remaining capacity 300 cycles (%) [2]: 42%
1.35,65,–,–,"Zvar(Q9A, N11E, N28A, Q40V, A42K, N43A, L44I)1 (designed binder)",–
–,–,1.21,81,"Zvar(Q9A, N11E, N43A)4 (designed binder)",Capacity relative to ref. 200 cycles [3]: 1.72; Capacity relative to ref. 300 cycles [3]: 2.56; Remaining capacity 200 cycles (%) [2]: 62%; Remaining capacity 300 cycles (%) [2]: 41%
1.4,66,–,–,"Zvar(Q9A, N11E, Q40V, A42K, N43A, L44I)1 (designed binder)",Kd [6]: 1.07 nM; koff [6]: 0.000437 s⁻¹; kon [6]: 410000 M⁻¹ s⁻¹
–,–,1.34,90,"Zvar(Q9A, N11E, Q40V, A42K, N43A, L44I)4 (designed binder)",Capacity relative to ref. 200 cycles [3]: 2.06; Capacity relative to ref. 300 cycles [3]: 3.56; Remaining capacity 100 cycles (%) [4]: 56%; Capacity relative to ref. 100 cycles [5]: 2.07; Remaining capacity 200 cycles (%) [2]: 74%; Remaining capacity 300 cycles (%) [2]: 57%
–,–,–,87,"Zvar(Q9A, N11E, Q40V, A42K, N43A, L44I)6 (designed binder)",Capacity relative to ref. 100 cycles [7]: 1.3
–,–,1.25,84,"Zvar(Q9A, N11E, Q40V, A42K, N43E, L44I)4 (designed binder)",Capacity relative to ref. 200 cycles [3]: 1.81; Capacity relative to ref. 300 cycles [3]: 3; Remaining capacity 100 cycles (%) [4]: 54%; Capacity relative to ref. 100 cycles [5]: 2; Remaining capacity 200 cycles (%) [2]: 65%; Remaining capacity 300 cycles (%) [2]: 48%
1.28,59,–,–,"Zvar(Q9A, N11K, H18K, S33K, D37E, A42R, N43A, L44I, K50R, L51Y)1 (designed binder)",–
